# Test results from PMC12416549 (2024).
# T1: TNFR1 (Homo sapiens, UniProt P19438)
# T1 chain: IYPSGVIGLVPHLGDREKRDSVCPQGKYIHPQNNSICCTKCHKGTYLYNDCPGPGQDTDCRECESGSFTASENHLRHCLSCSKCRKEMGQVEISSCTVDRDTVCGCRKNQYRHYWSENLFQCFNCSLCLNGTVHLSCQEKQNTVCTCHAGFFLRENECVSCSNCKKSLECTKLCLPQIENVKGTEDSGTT
# Biological target: T1, TNFR1
# Test: yeast display SC50
row,Binder,apparent Kd (screen)
1,A42M (designed binder) MTLQELLREEALRRAEAEAFRYALELLAEKFPEQKEYLLDLMEEIESQIRSLSGVDVEDVRKFLDKEWAWVKELLAEHPAELAEVEAARAARLAELRAEVEAKVAA,2480 pM
2,E25S (designed binder) MTLQELLREEALRRAEAEAFRYALSLLAEKFPEQKEYLLDLAEEIESQIRSLSGVDVEDVRKFLDKEWAWVKELLAEHPAELAEVEAARAARLAELRAEVEAKVAA,1050 pM
3,R14I (designed binder) MTLQELLREEALRIAEAEAFRYALELLAEKFPEQKEYLLDLAEEIESQIRSLSGVDVEDVRKFLDKEWAWVKELLAEHPAELAEVEAARAARLAELRAEVEAKVAA,539 pM
4,E29H (designed binder) MTLQELLREEALRRAEAEAFRYALELLAHKFPEQKEYLLDLAEEIESQIRSLSGVDVEDVRKFLDKEWAWVKELLAEHPAELAEVEAARAARLAELRAEVEAKVAA,446 pM
5,Q4F (designed binder) MTLFELLREEALRRAEAEAFRYALELLAEKFPEQKEYLLDLAEEIESQIRSLSGVDVEDVRKFLDKEWAWVKELLAEHPAELAEVEAARAARLAELRAEVEAKVAA,490 pM
6,E25F (designed binder) MTLQELLREEALRRAEAEAFRYALFLLAEKFPEQKEYLLDLAEEIESQIRSLSGVDVEDVRKFLDKEWAWVKELLAEHPAELAEVEAARAARLAELRAEVEAKVAA,539 pM
7,E43L (designed binder) MTLQELLREEALRRAEAEAFRYALELLAEKFPEQKEYLLDLALEIESQIRSLSGVDVEDVRKFLDKEWAWVKELLAEHPAELAEVEAARAARLAELRAEVEAKVAA,869 pM
8,T2Y (designed binder) MYLQELLREEALRRAEAEAFRYALELLAEKFPEQKEYLLDLAEEIESQIRSLSGVDVEDVRKFLDKEWAWVKELLAEHPAELAEVEAARAARLAELRAEVEAKVAA,869 pM
9,S47D (designed binder) MTLQELLREEALRRAEAEAFRYALELLAEKFPEQKEYLLDLAEEIEDQIRSLSGVDVEDVRKFLDKEWAWVKELLAEHPAELAEVEAARAARLAELRAEVEAKVAA,1270 pM
10,E33P (designed binder) MTLQELLREEALRRAEAEAFRYALELLAEKFPPQKEYLLDLAEEIESQIRSLSGVDVEDVRKFLDKEWAWVKELLAEHPAELAEVEAARAARLAELRAEVEAKVAA,539 pM
11,R13I (designed binder) MTLQELLREEALIRAEAEAFRYALELLAEKFPEQKEYLLDLAEEIESQIRSLSGVDVEDVRKFLDKEWAWVKELLAEHPAELAEVEAARAARLAELRAEVEAKVAA,368 pM
12,E16F (designed binder) MTLQELLREEALRRAFAEAFRYALELLAEKFPEQKEYLLDLAEEIESQIRSLSGVDVEDVRKFLDKEWAWVKELLAEHPAELAEVEAARAARLAELRAEVEAKVAA,1050 pM
13,L38M (designed binder) MTLQELLREEALRRAEAEAFRYALELLAEKFPEQKEYMLDLAEEIESQIRSLSGVDVEDVRKFLDKEWAWVKELLAEHPAELAEVEAARAARLAELRAEVEAKVAA,539 pM
14,R8G (designed binder) MTLQELLGEEALRRAEAEAFRYALELLAEKFPEQKEYLLDLAEEIESQIRSLSGVDVEDVRKFLDKEWAWVKELLAEHPAELAEVEAARAARLAELRAEVEAKVAA,593 pM
15,E18Q (designed binder) MTLQELLREEALRRAEAQAFRYALELLAEKFPEQKEYLLDLAEEIESQIRSLSGVDVEDVRKFLDKEWAWVKELLAEHPAELAEVEAARAARLAELRAEVEAKVAA,539 pM
16,K35V (designed binder) MTLQELLREEALRRAEAEAFRYALELLAEKFPEQVEYLLDLAEEIESQIRSLSGVDVEDVRKFLDKEWAWVKELLAEHPAELAEVEAARAARLAELRAEVEAKVAA,1540 pM

# Other lines, results leading:
row,apparent Kd (screen),Binder
1,446 pM,P79M (designed binder) MTLQELLREEALRRAEAEAFRYALELLAEKFPEQKEYLLDLAEEIESQIRSLSGVDVEDVRKFLDKEWAWVKELLAEHMAELAEVEAARAARLAELRAEVEAKVAA
2,539 pM,L52Y (designed binder) MTLQELLREEALRRAEAEAFRYALELLAEKFPEQKEYLLDLAEEIESQIRSYSGVDVEDVRKFLDKEWAWVKELLAEHPAELAEVEAARAARLAELRAEVEAKVAA
3,9410 pM,V55D (designed binder) MTLQELLREEALRRAEAEAFRYALELLAEKFPEQKEYLLDLAEEIESQIRSLSGDDVEDVRKFLDKEWAWVKELLAEHPAELAEVEAARAARLAELRAEVEAKVAA
4,2730 pM,R61E (designed binder) MTLQELLREEALRRAEAEAFRYALELLAEKFPEQKEYLLDLAEEIESQIRSLSGVDVEDVEKFLDKEWAWVKELLAEHPAELAEVEAARAARLAELRAEVEAKVAA
5,490 pM,K103G (designed binder) MTLQELLREEALRRAEAEAFRYALELLAEKFPEQKEYLLDLAEEIESQIRSLSGVDVEDVRKFLDKEWAWVKELLAEHPAELAEVEAARAARLAELRAEVEAGVAA
6,446 pM,H78K (designed binder) MTLQELLREEALRRAEAEAFRYALELLAEKFPEQKEYLLDLAEEIESQIRSLSGVDVEDVRKFLDKEWAWVKELLAEKPAELAEVEAARAARLAELRAEVEAKVAA
7,718 pM,E58T (designed binder) MTLQELLREEALRRAEAEAFRYALELLAEKFPEQKEYLLDLAEEIESQIRSLSGVDVTDVRKFLDKEWAWVKELLAEHPAELAEVEAARAARLAELRAEVEAKVAA
8,490 pM,V100L (designed binder) MTLQELLREEALRRAEAEAFRYALELLAEKFPEQKEYLLDLAEEIESQIRSLSGVDVEDVRKFLDKEWAWVKELLAEHPAELAEVEAARAARLAELRAELEAKVAA
9,593 pM,P79S (designed binder) MTLQELLREEALRRAEAEAFRYALELLAEKFPEQKEYLLDLAEEIESQIRSLSGVDVEDVRKFLDKEWAWVKELLAEHSAELAEVEAARAARLAELRAEVEAKVAA
10,869 pM,R61A (designed binder) MTLQELLREEALRRAEAEAFRYALELLAEKFPEQKEYLLDLAEEIESQIRSLSGVDVEDVAKFLDKEWAWVKELLAEHPAELAEVEAARAARLAELRAEVEAKVAA
11,593 pM,A69K (designed binder) MTLQELLREEALRRAEAEAFRYALELLAEKFPEQKEYLLDLAEEIESQIRSLSGVDVEDVRKFLDKEWKWVKELLAEHPAELAEVEAARAARLAELRAEVEAKVAA
12,869 pM,R50L (designed binder) MTLQELLREEALRRAEAEAFRYALELLAEKFPEQKEYLLDLAEEIESQILSLSGVDVEDVRKFLDKEWAWVKELLAEHPAELAEVEAARAARLAELRAEVEAKVAA
13,490 pM,V60F (designed binder) MTLQELLREEALRRAEAEAFRYALELLAEKFPEQKEYLLDLAEEIESQIRSLSGVDVEDFRKFLDKEWAWVKELLAEHPAELAEVEAARAARLAELRAEVEAKVAA
14,1050 pM,L75S (designed binder) MTLQELLREEALRRAEAEAFRYALELLAEKFPEQKEYLLDLAEEIESQIRSLSGVDVEDVRKFLDKEWAWVKELSAEHPAELAEVEAARAARLAELRAEVEAKVAA
15,4830 pM,E67D (designed binder) MTLQELLREEALRRAEAEAFRYALELLAEKFPEQKEYLLDLAEEIESQIRSLSGVDVEDVRKFLDKDWAWVKELLAEHPAELAEVEAARAARLAELRAEVEAKVAA
16,653 pM,A69I (designed binder) MTLQELLREEALRRAEAEAFRYALELLAEKFPEQKEYLLDLAEEIESQIRSLSGVDVEDVRKFLDKEWIWVKELLAEHPAELAEVEAARAARLAELRAEVEAKVAA
17,593 pM,R92T (designed binder) MTLQELLREEALRRAEAEAFRYALELLAEKFPEQKEYLLDLAEEIESQIRSLSGVDVEDVRKFLDKEWAWVKELLAEHPAELAEVEAARAATLAELRAEVEAKVAA
18,790 pM,V85F (designed binder) MTLQELLREEALRRAEAEAFRYALELLAEKFPEQKEYLLDLAEEIESQIRSLSGVDVEDVRKFLDKEWAWVKELLAEHPAELAEFEAARAARLAELRAEVEAKVAA
19,490 pM,K66A (designed binder) MTLQELLREEALRRAEAEAFRYALELLAEKFPEQKEYLLDLAEEIESQIRSLSGVDVEDVRKFLDAEWAWVKELLAEHPAELAEVEAARAARLAELRAEVEAKVAA
